The text below walks through data of the supplement of paper PMC11246515.

± gives the standard deviation of the averaged measurements. Where only a bound is given, the exact number is not on record here.

The nature of this data set: total protein half-life in vivo (active degradation + dilution); higher = more stable protein.
Where [1] appears, read: E. coli NCM3722 delta-clpP delta-lon delta-hslV, growth: N-lim chemostat, doubling time 6 h.
Setting [2] is: E. coli NCM3722 delta-clpP, growth: N-lim chemostat, doubling time 6 h.
[3] abbreviates: E. coli NCM3722 delta-hslV, growth: N-lim chemostat, doubling time 6 h.
Setting [4] is: E. coli NCM3722 delta-lon, growth: N-lim chemostat, doubling time 6 h.
[5] abbreviates: E. coli NCM3722 delta-smpB, growth: N-lim chemostat, doubling time 6 h.
Where [6] appears, read: wild type E. coli NCM3722, growth: C-lim chemostat, doubling time 3 h.
The mark [7] stands for this setting: wild type E. coli NCM3722, growth: C-lim chemostat, doubling time 6 h.
[8] abbreviates: wild type E. coli NCM3722, growth: C-lim chemostat, doubling time 12 h.
Where [9] appears, read: wild type E. coli NCM3722, growth: N-lim chemostat, doubling time 6 h.
[10] abbreviates: wild type E. coli NCM3722, growth: N-lim chemostat, doubling time 12 h.
[11] abbreviates: wild type E. coli NCM3722, growth: P-lim chemostat, doubling time 6 h.
Setting [12] is: wild type E. coli NCM3722, growth: P-lim chemostat, doubling time 12 h.

For the sequence “MRTSQYLLSTLKETPADAEVISHQLMLRAGMIRKLASGLYTWLPTGVRVLKKVENIVREEMNNAGAIEVSMPVVQPADLWQESGRWEQYGPELLRFVDRGERPFVLGPTHEEVITDLIRNELSSYKQLPLNFYQIQTKFRDEVRPRFGVMRSREFLMKDAYSFHTSQESLQETYDAMYAAYSKIFSRMGLDFRAVQADTGSIGGSASHEFQVLAQSGEDDVVFSDTSDYAANIELAEAIAPKEPRAAATQEMTLVDTPNAKTIAELVEQFNLPIEKTVKTLLVKAVEGSSFPQVALLVRGDHELNEVKAEKLPQVASPLTFATEEEIRAVVKAGPGSLGPVNMPIPVVIDRTVAAMSDFAAGANIDGKHYFGINWDRDVATPEVADIRNVVAGDPSPDGQGRLLIKRGIEVGHIFQLGTKYSEALKASVQGEDGRNQILTMGCYGIGVTRVVAAAIEQNYDERGIVWPDAIAPFQVAILPMNMHKSFRVQELAEKLYSELRAQGIEVLLDDRKERPGVMFADMELIGIPHTIVLGDRNLDNDDIEYKYRRNGEKQLIKTGDIVEYLVKQIKG”, the “total protein half-life in vivo” value is, setting by setting: under setting [1], 5.92 ± 0.2 h; under setting [2], 5.61 ± 0.85 h; under setting [3], 5.37 ± 0.21 h; under setting [4], 6.14 ± 0.13 h; under setting [5], 5.24 ± 0.2 h; under setting [6], 3.1 ± 0.061 h. The “total protein half-life in vivo” value was 6.12 ± 0.33 h under setting [7]; 10.9 ± 0.57 h under setting [8]; 5.4 ± 0.19 h under setting [9]; 10.6 ± 0.72 h under setting [10]; 6.14 ± 0.17 h under setting [11]; 12.2 ± 1.2 h under setting [12].

As for “MILERVEIVGFRGINRLSLMLEQNNVLIGENAWGKSSLLDALTLLLSPESDLYHFERDDFWFPPGDINGREHHLHIILTFRESLPGRHRVRRYRPLEACWTPCTDGYHRIFYRLEGESAEDGSVMTLRSFLDKDGHPIDVEDINDQARHLVRLMPVLRLRDARFMRRIRNGTVPNVPNVEVTARQLDFLARELSSHPQNLSDGQIRQGLSAMVQLLEHYFSEQGAGQARYRLMRRRASNEQRSWRYLDIINRMIDRPGGRSYRVILLGLFATLLQAKGTLRLDKDARPLLLIEDPETRLHPIMLSVAWHLLNLLPLQRIATTNSGELLSLTPVEHVCRLVRESSRVAAWRLGPSGLSTEDSRRISFHIRFNRPSSLFARCWLLVEGETETWVINELARQCGHHFDAEGIKVIEFAQSGLKPLVKFARRMGIEWHVLVDGDEAGKKYAATVRSLLNNDREAEREHLTALPALDMEHFMYRQGFSDVFHRMAQIPENVPMNLRKIISKAIHRSSKPDLAIEVAMEAGRRGVDSVPTLLKKMFSRVLWLARGRAD”, the “total protein half-life in vivo” value by setting is: under setting [1], 6.44 ± 0.23 h; under setting [2], 2.21 h.

Consider “MKILVYGINYSPELTGIGKYTGEMVEWLAAQGHEVRVITAPPYYPQWQVGENYSAWRYKREEGAATVWRCPLYVPKQPSTLKRLLHLGSFAVSSFFPLMAQRRWKPDRIIGVVPTLFCAPGMRLLAKLSGARTVLHIQDYEVDAMLGLGLAGKGKGGKVAQLATAFERSGLHNVDNVSTISRSMMNKAIEKGVAAENVIFFPNWSEIARFQHVADADVDALRNQLDLPDNKKIILYSGNIGEKQGLENVIEAADRLRDEPLIFAIVGQGGGKARLEKMAQQRGLRNMQFFPLQSYDALPALLKMGDCHLVVQKRGAADAVLPSKLTNILAVGGNAVITAEAYTELGQLCETFPGIAVCVEPESVEALVAGIRQALLLPKHNTVAREYAERTLDKENVLRQFINDIRG”, for which the “total protein half-life in vivo” value worked out at 4.84 h under setting [1] and 5.37 h under setting [5].

Turning to “MTDQSHQCVIIGIAGASASGKSLIASTLYRELREQVGDEHIGVIPEDCYYKDQSHLSMEERVKTNYDHPSAMDHSLLLEHLQALKRGSAIDLPVYSYVEHTRMKETVTVEPKKVIILEGILLLTDARLRDELNFSIFVDTPLDICLMRRIKRDVNERGRSMDSVMAQYQKTVRPMFLQFIEPSKQYADIIVPRGGKNRIAIDILKAKISQFFE [P0A8F4]”, the “total protein half-life in vivo” value reads like this: under setting [1], 5.42 ± 0.4 h; under setting [2], 4.6 ± 0.34 h; under setting [4], 4.87 ± 1.3 h; under setting [5], 4.376 ± 0.027 h; under setting [6], 2.86 ± 0.035 h; under setting [7], 5.074 ± 0.037 h. The “total protein half-life in vivo” value under setting [8] was found to be 9.37 ± 0.41 h; the “total protein half-life in vivo” value under setting [9] was found to be 4.36 ± 0.07 h; the “total protein half-life in vivo” value under setting [10] amounted to 6.72 ± 0.17 h; the “total protein half-life in vivo” value under setting [11] came out at 5.11 ± 0.44 h; the “total protein half-life in vivo” value under setting [12] came out at 9.61 ± 2.1 h.

As for “METFNSLFMVSPLLLGVLFFVAMLAGFIDSIAGGGGLLTIPALMAAGMSPANALATNKLQACGGSISATIYFIRRKVVSLSDQKLNIAMTFVGSMSGALLVQYVQADVLRQILPILVICIGLYFLLMPKLGEEDRQRRMYGLPFALIAGGCVGFYDGFFGPAAGSFYALAFVTLCGFNLAKATAHAKLLNATSNIGGLLLFILGGKVIWATGFVMLVGQFLGARMGSRLVLSKGQKLIRPMIVIVSAVMSAKLLYDSHGQEILHWLGMN [P0AD30]”, the “total protein half-life in vivo” value by setting is: under setting [1], 6.4 h; under setting [4], 6.29 ± 0.21 h; under setting [5], 6.13 h; under setting [7], 5.18 ± 0.11 h; under setting [9], 4.37 h; under setting [12], 10 ± 3.5 h.

Consider “MKRLQAFKFQLRPGGQQECEMRRFAGACRFVFNRALARQNENHEAGNKYIPYGKMASWLVEWKNATETQWLKDSPSQPLQQSLKDLERAYKNFFRKRAAFPRFKKRGQNDAFRYPQGVKLDQENSRIFLPKLGWMRYRNSRQVTGVVKNVTVSQSCGKWYISIQTESEVSTPVHPSASMVGLDAGVAKLATLSDGTVFEPVNSFQKNQKKLARLQRQLSRKVKFSNNWQKQKRKIQRLHSCIANIRRDYLHKVTTAVSKNHAMIVIEDLKVSNMSKSAAGTVSQPGRNVRAKSGLNRSILDQGWYEMRRQLAYKQLWRGGQVLAVPPAYTSQRCAYCGHTAKENRLSQSKFRCQVCGYTANADVNGARNILAAGHAVLACGEMVQSGRPLKQEPTEMIQATA”, for which the “total protein half-life in vivo” value under setting [1] is 5.63 h; the “total protein half-life in vivo” value under setting [4] came to 3.54 h; the “total protein half-life in vivo” value under setting [7] was found to be 6.1 ± 0.35 h; the “total protein half-life in vivo” value under setting [8] turned out to be 10.6 h; the “total protein half-life in vivo” value under setting [12] was greater than 16 h.

Consider “MKEKPAVEVRLDKWLWAARFYKTRALAREMIEGGKVHYNGQRSKPSKIVELNATLTLRQGNDERTVIVKAITEQRRPASEAALLYEETAESVEKREKMALARKLNALTMPHPDRRPDKKERRDLLRFKHGDSE [P0ACG8]”, for which the “total protein half-life in vivo” value under setting [1] worked out at 6.23 ± 0.21 h; the “total protein half-life in vivo” value under setting [4] turned out to be 5.39 h; the “total protein half-life in vivo” value under setting [5] was found to be 3.67 h; the “total protein half-life in vivo” value under setting [6] amounted to 2.91 h; the “total protein half-life in vivo” value under setting [7] was found to be 5.7 ± 1.5 h; the “total protein half-life in vivo” value under setting [8] is 6.7 h. Besides, the “total protein half-life in vivo” value runs as follows: under setting [9], 4.16 h; under setting [10], 6.59 h; under setting [12], 7.24 h.

In the case of “MARAVHRSGLVALGIATALMASCAFAAKDVVVAVGSNFTTLDPYDANDTLSQAVAKSFYQGLFGLDKEMKLKNVLAESYTVSDDGITYTVKLREGIKFQDGTDFNAAAVKANLDRASDPANHLKRYNLYKNIAKTEAIDPTTVKITLKQPFSAFINILAHPATAMISPAALEKYGKEIGFYPVGTGPYELDTWNQTDFVKVKKFAGYWQPGLPKLDSITWRPVADNNTRAAMLQTGEAQFAFPIPYEQATLLEKNKNIELMASPSIMQRYISMNVTQKPFDNPKVREALNYAINRPALVKVAFAGYATPATGVVPPSIAYAQSYKPWPYDPVKARELLKEAGYPNGFSTTLWSSHNHSTAQKVLQFTQQQLAQVGIKAQVTAMDAGQRAAEVEGKGQKESGVRMFYTGWSASTGEADWALSPLFASQNWPPTLFNTAFYSNKQVDDFLAQALKTNDPAEKTRLYKAAQDIIWQESPWIPLVVEKLVSAHSKNLTGFWIMPDTGFSFEDADLQ”, the “total protein half-life in vivo” value is, setting by setting: under setting [1], 5.029 ± 0.012 h; under setting [2], 5.36 ± 0.42 h; under setting [3], 6.42 ± 0.61 h; under setting [4], 6.43 ± 0.089 h; under setting [5], 5.72 ± 0.071 h; under setting [6], 3.21 ± 0.061 h. Moreover, the “total protein half-life in vivo” value by setting is: under setting [7], 6.6 ± 0.26 h; under setting [8], 13 ± 0.86 h; under setting [9], 6.04 ± 0.39 h; under setting [10], 13.2 ± 0.28 h; under setting [11], 5.85 ± 0.27 h; under setting [12], 13.3 ± 0.87 h.
